Assay: soluble on expression in E. coli; label from the status in PepcDB or PDB records

| Sequence | soluble on expression in E. coli |
| --- | --- |
| GHMAESQALSDDIGFLLSRVGGMVLGAVNKALVPTGLRVRSYSVLVLACEQAEGVNQRGVAATMGLDPSQIVGLVDELEERGLVVRTLDPSDRRNKLIAATEEGRRLRDDAKARVDAAHGRYFEGIPDTVVNQMRDTLQSIAFPTFVEGS | soluble |
| GHMDQSDFSPYIEIDLPSESRIQSLHKSGLAAQEWVACEKVHGTNFGIYLINQGDHEVVRFAKRSGIMDPNENFFGYHILIDEFTAQIRILNDLLKQKYGLSRVGRLVLNGELFGAKYKHPLVPKSEKWCTLPNGKKFPIAGVQIQREPFPQYSPELHFFAFDIKYSVSGAEEDFVLLGYDEFVEFSSKVPNLLYARALVRGTLDECLAFDVENFMTPLPALLGLGNYPLEGNLAEGVVIRHVRRGDPAVEKHNVSTIIKLRCSSFMELKHPGKQKE | soluble |
| GHMHTPFIVALDFPSKQEVERFLRPFAGTPLFVKVGMELYYQEGPAIVAFLKEQGHAVFLDLKLHDIPNTVKQAMKGLARVGADLVNVHAAGGRRMMEAAIEGLDAGTPSGRMRPRCIAVTQLTSTDERMLHEELWISRPLVETVAHYAALAKESGLDGVVCSANEAAFIKERCGASFLAVTPGIRFADDAAHDQVRVVTPRKARALGSDYIVIGRSLTRAADPLRTYARLQHEWNGGERESTTPT | soluble |
| GHMIKGEQKRYSEMTKEELQQEIAMLTEKARKAEQMGMVNEYAVYERKIAMAKAYMLNPADFHPGEIYEIEGAPGEYFKVRYLKGVFAWGWRLKGNGEEEALPISLLRKPNLPQS | soluble |
| GIDPFTAPGQLECETAIAALNSCLRDLDQASLAAVSQQLAPREGISQEALHTQMLTAVQEISHLIEPLASAARAEASQLGHKVSQMAQYFEPLTLAAVGAASKTLSHPQQMALLDQTKTLAESALQLLYTAKEAGGNPKQAAHTQEALEEAVQMMTEAVEDLTTTLNEAASAAG | soluble |
| GKDDDNVETGAFDPSKPVAISDFTPKEGGAYQKLLIYGENFGTDVSKVKVKIGGKDAIVINVKSTYVYCFVPSGAFSGEIEITVGEGENAVTTTASTTFSYEKKMVVGTLCGYRNNRDDQGWRDGPFDGPEGVKCCGFSDNGRLAFDPLNKDHLYICYDGHKAIQLIDLKNRMLSSPLNINTIPTNRIRSIAFNKKIEGYADEAEYMIVAIDYDGKGDESPSVYIIKRNADGTFDDRSDIQLIAAYKQCNGATIHPINGELYFNSYEKGQVFRLDLVDYFKTIKNGGSWDPIVKNNPNTFKQLFTIADPSWEFQIFIHPTGKYAYFGVINNHYFMRSDYDEIKKEFITPYNFVGGYKQSGYRDDVGTEARMNNPCQGVFVKNPDYTGEEEYDFYFVDRLNFCVRKVTPEGIVSTYAGRGASTSLADGNQWGTDDGDLREVARFRDVSGLVYDDVKEMFYVHDQVGHTIRTISMEQEENVAGDENIPEDESTVESNE | soluble |
| GKPKTDTDFQTYNGDGFKLQIPSKWNPNKEVEYPGQVLRFEDNFDATSNVIVAITPTDKKSITDFGSPEQFLSQVDYLLGRQAYSGKTDSEGGFESDAVAIANVLETSTAEVGGKQYYYLSILTRTADGNEGGKHQLVTATVNDGKLYICKAQAGDKRWFKGAKKFVENTATSFSLA | soluble |
| GKSASGEKEGNENAEEEAAAIEEARREAEERRKEKHRKMEEEREEMRQTIRDKYGLKKKVKEEPEAEADLDEGRVGRKK | soluble |
| GLEVTVWNRSAAACEPLVALGAARAEEVGELFGLDVVISMLADDQAIRGVLLDSGALERARPGLIHLSMSTLSLDCVEALDQAHQRQGLAFVAAPVFGRTDVAEAGKLNIVVGGPEEAIEQVKALLEIMGQKTWFFGKDPRGAMAVKISGNFMIASAIESMGESVALVKRLGVEPGRFMELMSSTLFDAPVYRNYGPQIVEQRFTPARFRLVLGLKDVDLALSAGKRHNVPLPLASLLHDVLLEAIAHGDGESDWTALAKVALSRSGQI | not soluble |
| GLFDKLKSLVSDDKKDTGTIEIIAPLSGEIVNIEDVPDVVFAEKIVGDGIAIKPTGNKMVAPVDGTIGKIFETNHAFSIESDSGVELFVHFGIDTVELKGEGFKRIAEEGQRVKVGDTVIEFDLPLLEEKAKSTLTPVVISNMDEIKELIKLSGSVTVGETPVIRIKK | soluble |
| GLVNAHTHLEMTPLIGAFSELELTEMLGSGTALFNRLGNGEFEYLVEAGVELAALNFLLGGVTTVNSMDARPAAGAEAFGEAGLRGFFGPAISDLFWDQPVDQQFSRAREFVETYHDTYDGRIRATICPHDDWSCTRQLWERTASLAAEYPDLLVHTHLLELEESNTMARANGGEDSVGLLDDVGLLDDRLVAAHFRLGDEEDIQRTAEADAAVAHCPSVFCYWNPDGETQWTPVPELRAAGVDVGVGIDDHYWHDSYSMFGEARQARLAANLKRSAGQFDSMELIRMLTIEGARALGMGDE | not soluble |
| GMAEYEDRYWTSSDGLRLHFRAYEGDISRPPVLCLPGLTRNARDFEDLATRLAGDWRVLCPEMRGRGDSDYAKDPMTYQPMQYLQDLEALLAQEGIERFVAIGTSLGGLLTMLLAAANPARIAAAVLNDVGPEVSPEGLERIRGYVGQGRNFETWMHAARALQESSGDVYPDWDITQWLRYAKRIMVLGSSGRIAFDYDMKIAEPFEAPVGATPQVDMWPLFDALATRPLLVLRGETSDILSAQTAAKMASRPGVELVTLPRIGHAPTLDEPESIAAIGRLLERV | soluble |
| GMALQEEFIDVNGTRVFQRKMVTDSNRRSIALFHGYSFTSMDWDKADLFNNYSKIGYNVYAPDYPGFGRSASSEKYGIDRGDLKHAAEFIRDYLKANGVARSVIMGASMGGGMVIMTTLQYPDIVDGIIAVAPAWVESLKGDMKKIRQKTLLVWGSKDHVVPIALSKEYASIISGSRLEIVEGSGHPVYIEKPEEFVRITVDFLRNL | soluble |
| GMANKVEHRLSEQQMKALTDLPLVFLITHDQSKSWPITHAISWVYAKDETTIRFAIEADSLLVKTLADHPVFTLIFFADQSTYSLTCTDVAAWETTARLPLKVALYEGQIKEVRDILFYGAAVSDRPRVYKTYDEAAAMQLDQQIQDILKG | soluble |
| GMDKLTHYRHTIQEIIKKYYDLSNSQPATATETKISDDLPDTVGDRLIIDEQRDQYLWLCCGWDGKKRVQHIILYLQIQNGKIWIEEDSTNLAIVDEMLVAGIPQTDIILGFHHPSKRGLTEFAIA | soluble |
| GMDTRKLLLTAQEISRMKGEHKVHFLNPGAVRVNKSLGDAVGLRHMGIHLIQIEPGKESTEYHLHHYEEEAVYVLSGKGTLTMENDQYPIAPGDFVGFPCHAAAHSISNDGTETLVCLVIGQRLDQDVVDYPNQHKRLYRNNGEWNLVDMADIRVLREPTQK | soluble |
| GMEAHMKSHNLLEAVRFDDQRFVMELVHESENFKIVSFTFKAGQELPVHSHNIEGELNIVVLEGEGEFVGDGDAVIPAPRGAVLVAPISTPHGVRAVTDMKVLVTIAPPI | soluble |
| GMEVIESKWYKKDGASSASIDDVEKLLNTTLPKQYKSFLLWSNGGEGKLGDNYIYIWAIEDVIAYNHDYGIQKYLQKEYWAFGMDGDIGYILHLSDNSIYRVDLGDLDITSIKYIAPSFDDFLGKAIYLNFNKLQNVANNNLTT | soluble |
| GMGKEIEIERKTLVSKETFKRLISQLHIGEGDFKLQRNHYFETDDFQLKKQSSALRIREKEAIFTFTLKQPHPAGLLETNQTLSKQEAKLALESAHFPSGEVMDALRDLSIPISQLKHIGTLSTSRAEISYEQGILCLDHSSYLGIEDYEIEFEGTSEEHATVTFQEILKTFSISQVPTENKIQRFFSKKEKN | soluble |
| GMKEIRIILMGTGNVGLNVLRIIDASNRRRSAFSIKVVGVSDSRSYASGRNLDISSIISNKEKTGRISDRAFSGPEDLMGEAADLLVDCTPASRDGVREYSLYRMAFESGMNVVTANKSGLANKWHDIMDSANQNSKYIRYEATVAGGVPLFSVLDYSILPSKVKRFRGIVSSTINYVIRNMANGRSLRDVVDDAIKKGIAESNPQDDLNGLDAARKSVILVNHIFGTEYTLNDVEYSGVDERSYNANDRLVTEVYVDDRRPVAVSRIISLNKDDFLMSIGMDGLGYQIETDSNGTVNVSDIYDGPYETAGAVVNDILLLSKVQK | soluble |
| GMLFSIQTCPCQINPALNAVSTPLLYQDCCQPYHDGLYNQEVEDSDAIRADTAEHLMRTRYSAFVLVKPEYIVKTTLPAQQDLLDIKAIENWAKETDWAGLEVVAHTPKLSKRHAQVEFKAYFKTPDGLQAHHELSTFVKIKNKANSDASWYFLDPTVSMSVTQKQPCICGSGEKFKRCCGMYI | soluble |
| GMNANQFLKAVSQLQGWRECAFLLALAERSFPNYALFADAVGLKTGGKMRQLLDLAWDMLQKDVADAAIPQLLSKLETLCPNVDEYDAYGVYPAFDFCQLLEQALLNRLNPNKHRATEASQLATRTVMDFVEMSEGEGMDENELVRVFEHHPLLKDDKLFQRDTVMALYYYRTPKEAFLAELRAGAANDGVSNLGISLEG | soluble |
| GMNDLKRLPYEPVKGLLPRPAVGTSERVITLPEPDRTSGMPLMGTLWLRKSTREFDQQPLPLKQLSELLWAAAGVNRSLGGGRTAPSPYGETVIDVYVALPAGLYRYDPVHHCLELKRAADLRSMTGYQDFVGMAPLDLVFVANHGRMQEMPPKLRETFSAAAAGAMAENAYLYCASAGLGAVVRGWLNRRQLAEHMSLNEDEEPILSQTIGRAASHVTTTQA | soluble |
| GMPTRVIEDKGDMTPSFGIDDRIFLGEGLFETIRVNSSKPSFAYMHWERLGNSARQLGIPFEISFDDWFEHLIQKIQKDNLYHGGIKAILSGGPASRGLAERGQVSQLIFQTFNYSIQKHPVRLISINWLRDKANPLYQLKSVNYLEAIIAQRQAIAVGADDALFFNTENHVTETTCANLFLIENNILYTPRVEDGILPGITRARLISHCQQHKMSVQEISLTKKRIEDADAVFLTNSLQGIRRVLSLDNIIFEVNHPIIDKLIFLLNQDES | soluble |
| GMRQGAGLGYRRDLAEGFLQLRNNDRIQFMEIAPENWIKMGGFARYQFDKVAEKIPILIHGLSLSLGGQAPLDKELLSSIKAMIKQYNTPFFSDHLSFCECDGHLYDLLPMPFTDEAVKHTAARIREVQDFLEIQISVENTSYYLHSETSTMNEVEFLNAIVQEANCGIHLDVNNIYVNAVNHGLLDPHVFIDNVDLKRVNYIHIAGHDDEHAATEVQIQTSESFNKIKGDLRHLPPLLVDTHGENVKGTVWDLLEYTYARLSHMPPTLLERDFNFPPFEKLCKEVDIIHQLQQKYVKKRGLSWLKI | soluble |
| GMSDHVCQEGCRHHSHGEDSPEIQQEFQEGRRDFMRDFAVGGVLASAASLGISSSAFGQTMPKTGLTSGHATHYYIPASDKTVSWGFFSKSLKPVVELESGDFATIETLTHHSNDDASLMVKGDPGAESVFYWDSKRKNVDRRGMGPMDHKLGAGGGMGVHILTGPVAIKGAEPGDVLEVRIVDVALRPSANPEFKGKTFGSNVAANWGFHYNELIEEPKKREVVTIYELDATGERNWARAFYNYRWTPQKDPFGVVHPIVDYPGVPVDHSTISKNYNVLKNIRVPVRPHFGTMGLAPKEADLVNSVPPSHFGGNIDNWRIGKGATMYYPVSVAGGLFSVGDPHASQGDSEMCGTAIECSLTGTFQFILHKKADLPGTPLADLQYPLLETQDEWVLHGFSYANYLAELGPDAQNSIFSKSSLDLALKDAFRKMRHFLMQTQNLTEDEAVSLMSIGVDFGITQVVDGNWGVHAVVKKGIFPGRDV | soluble |
| GMSEPYGKAFSLMRAEAEPAWRAYTHHAFVEGLKAGTLPREAFLHYLQQDYVFLIHFSRAWALAVVKSETHSEMLAAVGTVNALVAEEMQLHIGICEASGISQEALFATRERAENLAYTRFVLEAGYSGDLLDLLAALAPCVMGYGEIGKRLTAEATSTLYGDWIDTYGGDDYQAACKAVGTLLDDALERRLGAEFTSSPRWSRLCQTFHTATELEVGFWQMGLTP | soluble |

— the DeepSol protein solubility set
